Each block holds one binder with its values, some of them ahead of it.
Tests used:
CD28 [1] = biological target: T1, CD28 (human, UniProt P10747 19-152); assay: ELISA, coated protein 1 ug/mL; antibody concentration not stated
Procedure: (§1) 100 uL of the diluted recombinant proteins were added to each well of 96-well plate. The plates were sealed with plastic film and incubated at 4° C. overnight. The plates were washed twice with wash buffer (PBS+0.01% (v/v) Tween20), and incubated with blocking buffer (PBS+0.01% (v/v) Tween20+1% (w/w) BSA) at room temperature for 2 hours. The blocking buffer was aspirated away, and 100 uL of purified anti-PD-1 antibodies were added to each well and incubated for 2 hours at 37° C. The plates were washed three times with wash buffer (PBS+0.01% (v/v) Tween20). HRP-conjugated secondary antibody (Sigma) was added to each well and incubated for 2 hours at 37° C. After the plates were washed three times with wash buffer, 100 uL TMB substrate was added to each well and incubated for 30 minutes at room temperature. 100 uL stop solution (0.1N HCl) was added to each well to stop the reaction. The absorbance at 450 nm was measured with an ELISA plate reader (384plus SpectraMax, Molecular Devices).
T1 sequence (P10747 19-152 limits assumed): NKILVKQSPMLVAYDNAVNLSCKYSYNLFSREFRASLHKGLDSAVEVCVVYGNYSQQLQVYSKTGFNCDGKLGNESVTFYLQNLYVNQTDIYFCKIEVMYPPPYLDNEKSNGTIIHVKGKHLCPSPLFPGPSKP

ICOS [2] = biological target: T2, ICOS (human, UniProt Q9Y6W8 21-140, limits assumed); assay: as above
T2 sequence (looked up): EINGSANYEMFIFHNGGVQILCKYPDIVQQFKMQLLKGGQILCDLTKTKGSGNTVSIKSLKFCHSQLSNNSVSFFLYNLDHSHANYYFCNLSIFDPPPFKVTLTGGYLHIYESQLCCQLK
Procedure: as §1

CTLA4 [3] = biological target: T3, CTLA4 (human, UniProt P16410 37-162, limits assumed); assay: as above
T3 sequence (looked up): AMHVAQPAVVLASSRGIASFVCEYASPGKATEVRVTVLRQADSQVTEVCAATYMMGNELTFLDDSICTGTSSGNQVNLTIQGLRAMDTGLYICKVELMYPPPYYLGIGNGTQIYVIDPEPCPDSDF
Procedure: as §1

[4] = biological target: T4, cyno PD-1^ECD-hFc protein (cyno monkey, UniProt B0LAJ3 25-167); assay: ELISA, coated cyno PD-1ECD-hFc; antibody 1 nM
T4 construct: Prepared by the method for Immunogen A; also called Cyno Monkey PD-1^ECD-hFc; cyno monkey PD-1-hFc; not shown: human IgG Fc fragment (hFc) and its junction to the ECD
Procedure: as §1

[5] = biological target: T4, cyno PD-1^ECD-hFc protein; assay: ELISA, coated cyno PD-1ECD-hFc; antibody 10 nM
Procedure: as §1

CD28 [6] = biological target: T1, CD28; assay: ELISA on coated protein (Table 9)
Procedure: as §1

ICOS [7] = biological target: T2, ICOS; assay: ELISA on coated protein (Table 9)
Procedure: as §1

B7-1 = biological target: T5, B7-1 (human, UniProt P33681 35-242); assay: ELISA on coated protein (Table 9)
T5 sequence (looked up): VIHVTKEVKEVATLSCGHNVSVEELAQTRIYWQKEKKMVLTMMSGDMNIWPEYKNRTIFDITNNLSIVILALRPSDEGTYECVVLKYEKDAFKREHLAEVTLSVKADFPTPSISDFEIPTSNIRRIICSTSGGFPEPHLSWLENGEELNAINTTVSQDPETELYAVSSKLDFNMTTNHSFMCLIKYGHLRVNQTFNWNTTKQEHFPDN
Procedure: as §1

CTLA4 [8] = biological target: T3, CTLA4; assay: ELISA on coated protein (Table 9)
Procedure: as §1

[9] = biological target: T4, cyno PD-1^ECD-hFc protein; assay: ELISA, coated cyno PD-1ECD-hFc; antibody 100 nM
Procedure: as §1

[10] = biological target: T4, cyno PD-1^ECD-hFc protein; assay: ELISA, coated cyno PD-1ECD-hFc; antibody 0.01 nM
Procedure: as §1

[11] = biological target: T4, cyno PD-1^ECD-hFc protein; assay: ELISA, coated cyno PD-1ECD-hFc; antibody 0.1 nM
Procedure: as §1

[12] = biological target: T6, cyno monkey PD-1^ECD-hFc protein (cyno monkey, UniProt B0LAJ3 25-167); assay: ELISA, coated cyno PD-1ECD-hFc
T6 construct: also called cyno PD-1^ECD-hFc; not shown: human IgG Fc fragment (hFc) and its junction to the ECD

ICOS [13] = biological target: T7, ICOS (human, UniProt Q9Y6W8 21-140, limits assumed); assay: ELISA, coated protein, antibody concentration not given
T7 sequence (looked up): T2 sequence (looked up)

CD28 [14] = biological target: CD28 (human, UniProt P10747 19-152); assay: as above
Target sequence in this assay (P10747 19-152 limits assumed): as the sequence (P10747 19-152 limits assumed) above

B7.1 = biological target: T8, B7.1 (human, UniProt P33681 35-242); assay: as above
T8 sequence (looked up): T5 sequence (looked up)

CTLA4 [15] = biological target: T9, CTLA4 (human, UniProt P16410 37-162, limits assumed); assay: as above
T9 sequence (looked up): T3 sequence (looked up)

[16] = biological target: T10, full length human PD-1 on cells (human, UniProt Q15116 25-288); assay: flow cytometry, CHO-K1-hPD-1 cells; antibody 10 nM
T10 construct: Also used here for PD-1 on human T cells/PBMC; also called CHO-K1-hPD-1; hPD-1
From the text: (§2) CHO-K1 cells were stably transfected with pIRES plasmid containing the nucleic acid sequence encoding full length human PD-1 (see Example 2, step 2) to generate CHO-K1 cells stably expressing human PD-1 (herein referred to as CHO-K1-hPD-1 cells). Other CHO-K1 were stably transfected with pIRES plasmid containing the nucleic acid sequence encoding full length cyno PD-1 to generate CHO-K1 cells stably expressing cyno PD-1 (herein referred to as CHO-K1-cPD-1 cells). CHO-K1-hPD-1 and CHO-K1-cPD-1 cells were cultured and expanded in T-75 culture flasks to 90% confluence. The culture media was aspirated, and the cells were washed twice with HBSS (Hanks Balanced Salt Solution, Invitrogen). The cells were treated with enzyme-free cell dissociation solution (Versene solution, Invitrogen) and collected. The cells were then washed twice with HBSS, cell counts were determined, and cells were resuspended with HBSS at 2×10⁶ cells/mL. Goat serum was added to the cell suspension to a final concentration of 1%, and the cells were blocked for 30 minutes on ice and then washed twice with HBSS. The cells were collected after centrifugation and resuspended in FACS buffer (HBSS+1% BSA, v/v) at 2×10⁶ cells/mL. 100 uL of the cell suspension were then added to each well of 96-well plate. 100 uL of purified anti-PD-1 antibodies from Example 2 were added to each well of the 96-well plate and incubated for 2 hours on ice. […] The samples were washed three times with FACS buffer, and 100 uL fixation buffer (4% paraformaldehyde v/v) were added to each well and incubated for 10 minutes. The cells were then washed twice with FACS buffer and resuspended in 100 uL FACS buffer. The mean fluorescence intensity (MFI) was determined using FACS Calibur (BD), and the results are shown in FIGS. 7-8 and in Tables 10-11.

[17] = biological target: T10, full length human PD-1 on cells; assay: flow cytometry, CHO-K1-hPD-1 cells; antibody 31.6 nM
From the text: as §2

[18] = biological target: T11, human PD-1^ECD-hFc protein (Immunogen A) (human, UniProt Q15116 25-167); assay: ELISA, coated human PD-1ECD-hFc; antibody 0.00001 nM
T11 construct: Biotinylated for the Octet assay; also called PD-1-hFc; hPD-1^ECD-hFc; not shown: human IgG Fc fragment (hFc)
Procedure: as §1

[19] = biological target: T10, full length human PD-1 on cells; assay: flow cytometry, CHO-K1-hPD-1 cells; antibody 0.1 nM
From the text: as §2

[20] = biological target: T10, full length human PD-1 on cells; assay: flow cytometry, CHO-K1-hPD-1 cells; antibody 0.0316 nM
From the text: as §2

[21] = biological target: T10, full length human PD-1 on cells; assay: flow cytometry, CHO-K1-hPD-1 cells; antibody 100 nM
From the text: as §2

[22] = biological target: T11, human PD-1^ECD-hFc protein (Immunogen A); assay: ELISA, coated human PD-1ECD-hFc; antibody 0.01 nM
Procedure: as §1

[23] = biological target: T11, human PD-1^ECD-hFc protein (Immunogen A); assay: ELISA, coated human PD-1ECD-hFc; antibody 0.001 nM
Procedure: as §1

[24] = biological target: T11, human PD-1^ECD-hFc protein (Immunogen A); assay: ELISA, coated human PD-1ECD-hFc; antibody 1 nM
Procedure: as §1

[25] = biological target: T10, full length human PD-1 on cells; assay: flow cytometry, CHO-K1-hPD-1 cells; antibody 0.316 nM
From the text: as §2

[26] = biological target: T10, full length human PD-1 on cells; assay: flow cytometry, CHO-K1-hPD-1 cells; antibody 1 nM
From the text: as §2

[27] = biological target: T11, human PD-1^ECD-hFc protein (Immunogen A); assay: ELISA, coated human PD-1ECD-hFc; antibody 10 nM
Procedure: as §1

[28] = biological target: T11, human PD-1^ECD-hFc protein (Immunogen A); assay: ELISA, coated human PD-1ECD-hFc; antibody 0.0001 nM
Procedure: as §1

[29] = biological target: T11, human PD-1^ECD-hFc protein (Immunogen A); assay: ELISA, coated human PD-1ECD-hFc; antibody 0.1 nM
Procedure: as §1

[30] = biological target: T11, human PD-1^ECD-hFc protein (Immunogen A); assay: ELISA, coated human PD-1ECD-hFc; antibody 100 nM
Procedure: as §1

[31] = biological target: T10, full length human PD-1 on cells; assay: flow cytometry, CHO-K1-hPD-1 cells; antibody 3.16 nM
From the text: as §2

T4 sequence (B0LAJ3 entry or part of it limits assumed): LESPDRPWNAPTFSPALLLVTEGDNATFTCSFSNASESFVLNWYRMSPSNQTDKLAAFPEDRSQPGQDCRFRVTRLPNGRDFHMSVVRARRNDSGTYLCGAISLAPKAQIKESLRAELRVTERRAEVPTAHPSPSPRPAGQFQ
T6 sequence (B0LAJ3 entry or part of it limits assumed): as above
T10 sequence (Q15116 25-288 limits assumed): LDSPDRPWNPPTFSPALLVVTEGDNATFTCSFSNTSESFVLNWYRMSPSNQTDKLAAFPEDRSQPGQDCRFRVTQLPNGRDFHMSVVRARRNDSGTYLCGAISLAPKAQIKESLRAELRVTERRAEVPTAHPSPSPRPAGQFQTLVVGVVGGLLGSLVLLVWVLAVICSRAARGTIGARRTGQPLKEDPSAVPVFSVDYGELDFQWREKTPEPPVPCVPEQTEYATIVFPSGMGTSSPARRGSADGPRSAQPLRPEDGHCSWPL
T11 sequence (Q15116 25-167): as the sequence (B0LAJ3 entry or part of it limits assumed) above, with E2D, A10P, L19V, A35T, R75Q counted along it

B1: chimeric anti-PD-1 antibody 223G6B5 (antibody, V domains shown)
VH: QVQLQESGPGLVKPSETLSLTCAVSGHSIRGSYFWGWIRQPPGRGLEWIGSIYHSGSTYTNPSLKSRATISVDTSKNQFSLKLNSVTAADTAVYYCARDLDIATTRDYWGQGTLVTVSS
VL: DIQLTQSPSFLSASVGDRVTIICRASQGINNYLAWYQQKPGKAPKLLIYAASTLQSGVPSRFSGSGSGTEFTLTISSLQPEDFATYYCQQLDSYPRTFGQGTKVEIKR
notes: Purified from hybridoma of Harbour H2L2 mice: human variable regions, rat constant regions
- OD450 nm (CD28 [1]): 0.166
- OD450 nm (ICOS [2]): 0.14
- OD450 nm (CTLA4 [3]): 0.106
- OD450 nm [4]: 2.61
- OD450 nm [5]: 2.74
- binding result (CD28 [6]): no binding
- binding result (ICOS [7]): no binding
- binding result (B7-1): no binding
- binding result (CTLA4 [8]): no binding
- OD450 nm [9]: 2.7
- OD450 nm [10]: 0.342
- OD450 nm [11]: 1.28

B3: chimeric anti-PD-1 antibody 204C5E12 (antibody, V domains shown)
VH: QVQLVESGGGVVQPGRSLRLSCAASGFSFSYYGMHWVRQAPGKGLEWVAVIWYDGSNKYYADSVKGRFTISRDNSKNTLYLQMNSLRAEDTAVYYCASGITLVRGADYYYNYDMDVWGQGTTVTVSS
VL: not shown
notes: as for B1
- Mean fluorescence intensity [16]: 160
- Mean fluorescence intensity [17]: 986
- OD450 nm [18]: 0.43
- Mean fluorescence intensity [19]: 2.9
- Mean fluorescence intensity [20]: 3
- Mean fluorescence intensity [21]: 1490
- OD450 nm [22]: 0.68
- OD450 nm [23]: 0.48
- OD450 nm [24]: 2.87
- Mean fluorescence intensity [25]: 3
- Mean fluorescence intensity [26]: 5
- OD450 nm [27]: 2.84
- OD450 nm [28]: 0.43
- OD450 nm [29]: 2.13
- OD450 nm [30]: 2.77
- Mean fluorescence intensity [31]: 21.4

The next lines start with the values.

- OD450 nm at 0 nM [12]: 0.31 OD450
- OD450 nm at 0.001 nM [12]: 0.33 OD450
- OD450 nm at 0.01 nM [12]: 0.83 OD450
- OD450 nm at 0.1 nM [12]: 2.5 OD450
- OD450 nm at 1 nM [12]: 2.88 OD450
- OD450 nm at 100 nM [12]: 2.85 OD450
- OD450 nm (ICOS [13]): 0.12 OD450
- OD450 nm (CD28 [14]): 0.05 OD450
- OD450 nm (B7.1): 0.25 OD450
- OD450 nm (CTLA4 [15]): 0.13 OD450
B2: fully human anti-PD-1 antibody 223G6B5 (antibody, human IgG4, V domains shown)
VH: B1 VH
VL: B1 VL

- Mean fluorescence intensity [16]: 203
- Mean fluorescence intensity [17]: 826
- OD450 nm [18]: 0.39
- Mean fluorescence intensity [19]: 3.2
- Mean fluorescence intensity [20]: 4.1
- Mean fluorescence intensity [21]: 825
- OD450 nm [22]: 0.9
- OD450 nm [23]: 0.45
- OD450 nm [24]: 2.86
- Mean fluorescence intensity [25]: 3.4
- Mean fluorescence intensity [26]: 5.2
- OD450 nm [27]: 2.86
- OD450 nm [28]: 0.4
- OD450 nm [29]: 2.54
- OD450 nm [30]: 2.83
- Mean fluorescence intensity [31]: 22.9
B4: chimeric anti-PD-1 antibody 226C3A7 (antibody, V domains shown)
VH: QVQLQQSGPGLVNPSQTLSLTCAISGDSVSSNSGAWNWIRQSPSRGLEWLGRTYYRSKWYNDYGISVQSRITINPDTSKNHFSLQLNSVTPEDTAVYYCARDPYYYGSGSYFDYWGQGTLVTVSS
VL: EIVMTQSPATLSVSPGERVTLSCRASLSVNSNLAWYQQKPGQAPRLLIYDTSTRATGVPARFSGSGSGTEFTLTISSLQSEDFAVYYCQQYHYWPLTFGGGTKVEIK
notes: as for B1
